Laboratory results published in publication PMC6126765 (Proceedings of the National Academy of Sciences of the …, 2018).

Biological target: the molecule itself
Assay: cryo-EM structure

B1: MBP-tagged truncated mouse TRPM7 (amino acids 1 to 1280) (domain or fragment)
chain: MSQKSWIESTLTKRECVYIIPSSKDPHRCLPGCQICQQLVRCFCGRLVKQHACFTASLAMKYSDVKLGEHFNQAIEEWSVEKHTEQSPTDAYGVINFQGGSHSYRAKYVRLSYDTKPEIILQLLLKEWQMELPKLVISVHGGMQKFELHPRIKQLLGKGLIKAAVTTGAWILTGGVNTGVAKHVGDALKEHASRSSRKICTIGIAPWGVIENRNDLVGRDVVAPYQTLLNPLSKLNVLNNLHSHFILVDDGTVGKYGAEVRLRRELEKTINQQRIHARIGQGVPVVALIFEGGPNVILTVLEYLQESPPVPVVVCEGTGRAADLLAYIHKQTEEGGNLPDAAEPDIISTIKKTFNFGQSEAVHLFQTMMECMKKKELITVFHIGSEDHQDIDVAILTALLKGTNASAFDQLILTLAWDRVDIAKNHVFVYGQQWLVGSLEQAMLDALVMDRVSFVKLLIENGVSMHKFLTIPRLEELYNTKQGPTNPMLFHLIRDVKQGNLPPGYKITLIDIGLVIEYLMGGTYRCTYTRKRFRLIYNSLGGNNRRSGRNTSSSTPQLRKSHETFGNRADKKEKMRHNHFIKTAQPYRPKMDASMEEGKKKRTKDEIVDIDDPETKRFPYPLNELLIWACLMKRQVMARFLWQHGEESMAKALVACKIYRSMAYEAKQSDLVDDTSEELKQYSNDFGQLAVELLEQSFRQDETMAMKLLTYELKNWSNSTCLKLAVSSRLRPFVAHTCTQMLLSDMWMGRLNMRKNSWYKVILSILVPPAILMLEYKTKAEMSHIPQSQDAHQMTMEDSENNFHNITEEIPMEVFKEVKILDSSDGKNEMEIHIKSKKLPITRKFYAFYHAPIVKFWFNTLAYLGFLMLYTFVVLVKMEQLPSVQEWIVIAYIFTYAIEKVREVFMSEAGKISQKIKVWFSDYFNVSDTIAIISFFVGFGLRFGAKWNYINAYDNHVFVAGRLIYCLNIIFWYVRLLDFLAVNQQAGPYVMMIGKMVANMFYIVVIMALVLLSFGVPRKAILYPHEEPSWSLAKDIVFHPYWMIFGEVYAYEIDVCANDSTLPTICGPGTWLTPFLQAVYLFVQYIIMVNLLIAFFNNVYLQVKAISNIVWKYQRYHFIMAYHEKPVLPPPLIILSHIVSLFCCVCKRRKKDKTSDGPKLFLTEEDQKKLHDFEEQCVEMYFDEKDDKFNSGSEERIRVTFERVEQMSIQIKEVGDRVNYIKRSLQSLDSQIGHLQDLSALTVDTLKTLTAQKASEASKVHNEITRELSISKHLAQNLID
For B1, which “stoichiometry N” value is on record?
The value was 4.
